{"source": "the supplement of paper PMC12042874", "note": "± gives the uncertainty stated by the source."}
{"experiment": "amyloid nucleation score (Sup35N fusion, yeast selection) (log enrichment); library NNK1; higher = more nucleation; inactive = no reads after selection", "outline": "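For the nucleation score, DiMSum gave the log enrichment of output over input reads, centred on the mode score of non-aggregating sequences. Psi-negative yeast expressing Sup35N fused to peptides of 20 random codons were induced with 100 μM copper sulfate for 24 hours and grown 7 days at 30°C on medium lacking adenine and uracil. Input and output plasmid inserts were Illumina-sequenced, and sequences with under 100 input reads were excluded.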"}
{"substance": "KAMCYKMSFCNYDSRVYTED", "amyloid nucleation score": "4.53 ± 0.06"}
{"substance": "TLHVEWSSVIAMLFKMSCGL", "amyloid nucleation score": "-0.785 ± 0.88"}
{"substance": "QESVGSNRRVVGDNASLRLL", "amyloid nucleation score": "-0.211 ± 0.86"}
{"substance": "RYIPARGVNGGYSVVVRHLG", "amyloid nucleation score": "-0.436 ± 0.38"}
{"substance": "NNVAGCLEFHRYQGMCGRSM", "amyloid nucleation score": "1.04 ± 0.36"}
{"substance": "DFHTITGMANFTLSLCYSHK", "amyloid nucleation score": "-0.945 ± 1.4"}
{"substance": "VAATDWVGNHKS", "amyloid nucleation score": "1.28 ± 0.55"}
{"substance": "ITFTHDNISYKIRTPFAKSL", "amyloid nucleation score": "1.55 ± 0.26"}
{"substance": "HCWFRSWPWTISK", "amyloid nucleation score": "-0.913 ± 1.5"}
{"substance": "MMDVV", "amyloid nucleation score": "-0.756 ± 0.58"}
{"substance": "GGFWPICYWNLRASEPLQDS", "amyloid nucleation score": "0.173 ± 0.63"}
{"substance": "KPYIFYFINVYCEA", "amyloid nucleation score": "5.917 ± 0.056"}
{"substance": "VFSKHRFSIYCSRYAEPTTR", "amyloid nucleation score": "0.002 ± 0.31"}
{"substance": "YKWIDRMVDERQLMSSKRQW", "amyloid nucleation score": "0.099 ± 0.66"}
{"substance": "FWVFLTRKLCYSHGRVLALV", "amyloid nucleation score": "-0.708 ± 1.1"}
{"substance": "DNMSVLYDTTLVFRWIWVEP", "amyloid nucleation score": "inactive"}
{"substance": "YLGSGCRFETSYLDATFPVS", "amyloid nucleation score": "0.387 ± 1"}
{"substance": "FWRMTFQRHEKLSHQ", "amyloid nucleation score": "-0.28 ± 0.38"}
